First the molecules themselves.
B1: DVD449 DLL4 arm (antibody, V domains shown)
VH: QVQLVQSGAEVKKPGASVKISCKASGYSFTAYYIHWVKQAPGQGLEWIGYISSYNGATNYNQKFKGRVTFTTDTSTSTAYMELRSLRSDDTAVYYCARDYDYDVGMDYWGQGTLVTVSS
VL: DIVMTQSPDSLAVSLGERATISCRASESVDNYGISFMKWFQQKPGQPPKLLIYAASNQGSGVPDRFSGSGSGTDFTLTISSLQAEDVAVYYCQQSKEVPWTFGGGTKVEIKR
modifications: DVD-Ig outer
B2: DVD442 DLL4 arm (antibody, V domains shown)
VH: B1 VH
VL: B1 VL
modifications: DVD-Ig inner
B3: DVD441 DLL4 arm (antibody, V domains shown)
VH: B1 VH
VL: B1 VL
modifications: DVD-Ig outer
B4: DVD454 DLL4 arm (antibody, V domains shown)
VH: B1 VH
VL: B1 VL
modifications: DVD-Ig inner
B5: DVD462 DLL4 arm (antibody, V domains shown)
VH: B1 VH
VL: B1 VL
modifications: DVD-Ig inner
B6: DVD487 DLL4 arm (antibody, V domains shown)
VH: EVQLQQSGPELVKPGASVKMSCKASGYTFTSYVINWVKQKPGQGLEWIGLINPYNDGTKYNEKFKVKATLTSDKSSSTAYMELSSLTSEDSAVYYCASYYYGSRYYFDYWGQGTTLTVSS
VL: DIQMTQSSSYLSVSLGGRVTITCKASDHINNWLAWYQQKPGNAPRLLISGATSLETGVPSRFSGSGSGKDYTLSITSLQTEDVATYYCQQYWSIPLTFGAGTKLELKR
modifications: DVD-Ig outer
B7: DVD498 DLL4 arm (antibody, V domains shown)
VH: B6 VH
VL: B6 VL
modifications: DVD-Ig inner
B8: DVD493 DLL4 arm (antibody, V domains shown)
VH: B6 VH
VL: B6 VL
modifications: DVD-Ig outer
B9: DVD510 DLL4 arm (antibody, V domains shown)
VH: B6 VH
VL: B6 VL
modifications: DVD-Ig inner
B10: DVD491 DLL4 arm (antibody, V domains shown)
VH: B6 VH
VL: B6 VL
modifications: DVD-Ig outer
B11: DVD504 DLL4 arm (antibody, V domains shown)
VH: B6 VH
VL: B6 VL
modifications: DVD-Ig inner
B12: DVD505 DLL4 arm (antibody, V domains shown)
VH: B6 VH
VL: B6 VL
modifications: DVD-Ig outer
B13: DVD465 DLL4 arm (antibody)
chain 1: EVQLVESGGGLVQPGGSLRLSCAASGFTFTDNWISWVRQAPGKGLEWVGYISPNSGFTYYADSVKGRFTISADTSKNTAYLQMNSLRAEDTAVYYCARDNFGGYFDYWGQGTLVTVSS
chain 2: DIQMTQSPSSLSASVGDRVTITCRASQDVSTAVAWYQQKPGKAPKLLIYSASFLYSGVPSRFSGSGSGTDFTLTISSLQPEDFATTYYCQQSYTGTVTFGQGTKVEIKR
modifications: DVD-Ig outer
B14: DVD471 DLL4 arm (antibody)
chain 1: B13 chain 1
chain 2: B13 chain 2
modifications: DVD-Ig outer
B15: DVD469 DLL4 arm (antibody)
chain 1: B13 chain 1
chain 2: B13 chain 2
modifications: DVD-Ig outer
B16: DVD466 DLL4 arm (antibody)
chain 1: B13 chain 1
chain 2: B13 chain 2
modifications: DVD-Ig inner
B17: DVD483 DLL4 arm (antibody)
chain 1: B13 chain 1
chain 2: B13 chain 2
modifications: DVD-Ig outer
B18: DVD523 DLL4 arm (antibody, V domains shown)
VH: EVQLQQSGPELEKPGASVKISCKASGYSFTGYNMNWVKQSNGKSLEWIGNIDPYFGGTNYNQKFKGKATLTVDKSSSTAYMQLKSLTSEDSAVYYCARNYDYDGGCFDYWGQGTTLTVSS
VL: QAVVTQESALTTSPGETVTLTCRSSTGAVTTSNYANWVQEKPDHLFTGLIGGTNNRAPGVPARFSGSLIGDKAALTITGAQTEDEAIYFCALWYSNHWVFGGGTKLTVLG
modifications: DVD-Ig outer
B19: DVD525 DLL4 arm (antibody, V domains shown)
VH: B18 VH
VL: B18 VL
modifications: DVD-Ig outer
B20: DVD526 DLL4 arm (antibody, V domains shown)
VH: B18 VH
VL: B18 VL
modifications: DVD-Ig inner
B21: DVD533 DLL4 arm (antibody, V domains shown)
VH: B18 VH
VL: B18 VL
modifications: DVD-Ig outer
B22: DVD532 DLL4 arm (antibody, V domains shown)
VH: B18 VH
VL: B18 VL
modifications: DVD-Ig inner
B23: DVD511 DLL4 arm (antibody, V domains shown)
VH: B18 VH
VL: B18 VL
modifications: DVD-Ig outer

For this assay, the target named is DLL4 (human, UniProt Q9NR61). The experiment in a line: ELISA.
DLL4, sequence (Q9NR61 27-524): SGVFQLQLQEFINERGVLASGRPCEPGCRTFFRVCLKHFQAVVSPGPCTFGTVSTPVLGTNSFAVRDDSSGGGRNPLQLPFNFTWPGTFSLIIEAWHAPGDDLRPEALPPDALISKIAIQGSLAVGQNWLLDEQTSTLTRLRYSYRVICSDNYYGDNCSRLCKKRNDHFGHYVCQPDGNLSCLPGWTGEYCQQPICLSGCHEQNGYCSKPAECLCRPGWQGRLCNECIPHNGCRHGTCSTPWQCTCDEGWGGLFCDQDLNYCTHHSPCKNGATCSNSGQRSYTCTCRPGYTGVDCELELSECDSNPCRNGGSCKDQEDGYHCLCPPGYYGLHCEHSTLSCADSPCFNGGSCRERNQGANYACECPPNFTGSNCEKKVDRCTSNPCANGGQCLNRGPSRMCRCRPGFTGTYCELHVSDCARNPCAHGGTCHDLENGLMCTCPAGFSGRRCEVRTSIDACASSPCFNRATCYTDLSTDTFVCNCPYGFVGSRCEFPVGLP
With B1, the EC50 stood at 0.36 nM. In the case of B2 it was 10.6 nM; in that of B3, 0.04 nM.

As to B4, a half-maximal effect (EC50) was put at 1.01 nM. For B5, the EC50 turned out to be 7.99 nM.

B6: it took 0.14 nM to reach a half-maximal effect (EC50). As for B7, it took 0.45 nM to reach a half-maximal effect (EC50). As to B8, the EC50 amounted to 0.06 nM.

In the case of B9, the EC50 came out at 0.42 nM.

As for B10, the EC50 was 0.39 nM.

Molecule B11 came in with an EC50 of 0.53 nM.

B12 registered an EC50 of 0.09 nM.

On to B13, for which a half-maximal effect (EC50) was put at 0.57 nM.

Turning to B14, the concentration for a half-maximal effect (EC50) turned out to be 0.89 nM.

B15 gave an EC50 of 2.78 nM. In the case of B16 it was 19.8 nM. Molecule B17 gave an EC50 of 0.63 nM. In the case of B18 it was 0.09 nM; in that of B19, 1 nM; in that of B20, 1.57 nM. In the case of B21 it was 0.25 nM; in that of B22, 1.43 nM.

B23 gave an EC50 of 0.1 nM.

Values taken from US9029508 (dated 2015).
